Reference: US20260167721A1 (ABLEXIS, published 2026)

Columns and labels:
[1] = target: T1, recombinant human CD3 epsilon/delta heterodimer (human, UniProt P07766 23-126; P04234 22-105); experiment: Octet BLI, mAb on FAB2G sensor, hCD3 E/D 200-50 nM; R^2 0.96
T1 construct: Recombinant protein in solution (200-50 nM) in the Octet assay; also called hCD3 E/D; human CD3E/D

[2] = target: T2, recombinant human CD3 epsilon/gamma heterodimer (human, UniProt P07766 23-126; P09693 23-116); experiment: Octet BLI, mAb on FAB2G sensor, hCD3 E/G 200-50 nM; R^2 0.64
T2 construct: Recombinant protein in solution (200-50 nM) in the Octet assay; also called hCD3 E/G

[3] = target: T1, recombinant human CD3 epsilon/delta …; experiment: Octet BLI, mAb on FAB2G sensor, hCD3 E/D 200-50 nM; R^2 0.98;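 note: antibodies purified from hybridoma supernatants, measured by Octet binding to recombinant human CD3 protein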
[4] = target: T2, recombinant human CD3 epsilon/gamma …; experiment: Octet BLI, mAb on FAB2G sensor, hCD3 E/G 200-50 nM; R^2 0.95
[5] = target: T1, recombinant human CD3 epsilon/delta …; experiment: Octet BLI, mAb on FAB2G sensor, hCD3 E/D 200-50 nM; R^2 0.94
[6] = target: T2, recombinant human CD3 epsilon/gamma …; experiment: Octet BLI, mAb on FAB2G sensor, hCD3 E/G 200-50 nM; R^2 0.92
[7] = target: T2, recombinant human CD3 epsilon/gamma …; experiment: Octet BLI, mAb on FAB2G sensor, hCD3 E/G 200-50 nM; R^2 0.90
[8] = target: T2, recombinant human CD3 epsilon/gamma …; experiment: Octet BLI, mAb on FAB2G sensor, hCD3 E/G 200-50 nM; R^2 0.85
[9] = target: T1, recombinant human CD3 epsilon/delta …; experiment: Octet BLI, mAb on FAB2G sensor, hCD3 E/D 200-50 nM; R^2 1.00
[10] = target: T2, recombinant human CD3 epsilon/gamma …; experiment: Octet BLI, mAb on FAB2G sensor, hCD3 E/G 200-50 nM; R^2 0.76
[11] = target: T1, recombinant human CD3 epsilon/delta …; experiment: Octet BLI, mAb on FAB2G sensor, hCD3 E/D 200-50 nM; R^2 0.92
[12] = target: T2, recombinant human CD3 epsilon/gamma …; experiment: Octet BLI, mAb on FAB2G sensor, hCD3 E/G 200-50 nM; R^2 0.59
[13] = target: CD3 on effector cells (human Pan-T or PBMC) (human, UniProt P07766 23-207; P04234 22-171; P09693 23-182; P20963 22-164); experiment: cell-based or functional assay
recombinant CD3 proteins [14] = experiment: Octet (BLI), bispecific antibody against recombinant CD3 proteins
recombinant CD3 proteins [15] = experiment: Octet (BLI), bispecific antibody against recombinant CD3 proteins; Full R^2 0.00
[16] = target: T2, recombinant human CD3 epsilon/gamma …; experiment: Octet BLI, mAb on FAB2G sensor, hCD3 E/G 200-50 nM; R^2 0.00
[17] = target: T1, recombinant human CD3 epsilon/delta …; experiment: Octet BLI, mAb on FAB2G sensor, hCD3 E/D 200-50 nM; R^2 0.95
[18] = target: T2, recombinant human CD3 epsilon/gamma …; experiment: Octet BLI, mAb on FAB2G sensor, hCD3 E/G 200-50 nM; R^2 0.96

T2 sequence (P07766 23-126, chain 1 of 2): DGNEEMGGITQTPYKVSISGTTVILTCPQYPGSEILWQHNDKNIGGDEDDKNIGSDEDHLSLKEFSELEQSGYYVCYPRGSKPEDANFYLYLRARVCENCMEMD
T2 sequence (P09693 23-116, chain 2 of 2): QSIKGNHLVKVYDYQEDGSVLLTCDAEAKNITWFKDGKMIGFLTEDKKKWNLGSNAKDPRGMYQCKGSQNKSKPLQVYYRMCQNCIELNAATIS
T1 sequence (P07766 23-126, stated change not applied, chain 1 of 2): as the sequence (P07766 23-126, chain 1 of 2) above
T1 sequence (P04234 22-105, stated change not applied, chain 2 of 2): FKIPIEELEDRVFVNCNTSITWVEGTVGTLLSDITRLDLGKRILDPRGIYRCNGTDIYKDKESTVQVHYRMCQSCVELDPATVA
Chain of CD3 on effector cells (human Pan-T or PBMC) (P07766 23-207, chain 1 of 4): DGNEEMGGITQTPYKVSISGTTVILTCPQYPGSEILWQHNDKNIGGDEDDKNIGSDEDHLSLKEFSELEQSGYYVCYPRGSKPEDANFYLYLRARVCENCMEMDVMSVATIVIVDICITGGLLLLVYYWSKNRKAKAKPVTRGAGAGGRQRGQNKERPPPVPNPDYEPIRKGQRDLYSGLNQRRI
Chain of CD3 on effector cells (human Pan-T or PBMC) (P04234 22-171, chain 2 of 4): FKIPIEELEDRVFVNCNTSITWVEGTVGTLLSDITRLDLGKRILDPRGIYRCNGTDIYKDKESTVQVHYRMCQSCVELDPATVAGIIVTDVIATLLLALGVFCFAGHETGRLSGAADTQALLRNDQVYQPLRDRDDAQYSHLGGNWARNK
Chain of CD3 on effector cells (human Pan-T or PBMC) (P09693 23-182, chain 3 of 4): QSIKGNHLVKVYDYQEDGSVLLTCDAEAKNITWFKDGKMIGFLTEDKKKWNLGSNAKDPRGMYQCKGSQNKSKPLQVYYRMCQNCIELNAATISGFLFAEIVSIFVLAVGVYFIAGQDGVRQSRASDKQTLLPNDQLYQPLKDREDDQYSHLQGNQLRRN
Chain of CD3 on effector cells (human Pan-T or PBMC) (P20963 22-164, chain 4 of 4): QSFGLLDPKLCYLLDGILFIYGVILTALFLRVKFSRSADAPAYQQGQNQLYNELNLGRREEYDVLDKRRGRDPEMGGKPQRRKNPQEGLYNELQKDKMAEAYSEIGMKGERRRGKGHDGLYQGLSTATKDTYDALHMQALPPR

B1: ABL-CD3-27 (antibody, V domains shown)
VH: QVQLVQSGAEVKKPGASLKVSCKASGYTFTSYYMHWVRQAPGQGLEWMGIINPSNGNTISAQKFQGRVTMTRDTSTSTVYMEMSSLRSEDTAVYYCVRCWGYYVMDVWGQGTTVTVSS
VL: QTVVTQEPSFSVSPGGTVTLTCGLNSGSVSTSYYPSWYQQTPGQTPRTLIYSTNTRSSGVPDRFSGSILGNKAALTITGAQADDESDYYCVLYMGSGIWVFGGGTKLTVL
notes: Chimeric hybridoma mAb: human V, CH1, upper hinge; mouse middle hinge, CH2, CH3
- Kd [1]: 2.31 nM
- Response [1]: 0.39
- koff [1]: 0.000528 s⁻¹
- kon [1]: 228000 M⁻¹ s⁻¹
- Kd [2]: 3.65 nM
- koff [2]: 0.00156 s⁻¹
- kon [2]: 428000 M⁻¹ s⁻¹

B2: ABL-CD3-61 (antibody, V domains shown)
VH: EVQLVESGGGLVKPGGSLRLSCAASGFTFSSYSMNWVRQAPGKGLEWVSSISRSGTYIYYADSVKGRFTISRDNAKNSLYLQMNSLRAEDTAVYYCARERWELLYFDYWGQGTLVTVSS
VL: QTVVTQEPSLTVSPGGTVTLTCASSTGAVTSGYYPNWFQQKPGQAPRALIYSTSNKHSWTPARFSGSLLGGKAALTLSGVQPEDEAEYYCLLYYGGAYVFGTGTKVTVL
notes: as for B1
- Kd [3]: 117 nM
- Response [3]: 0.26
- koff [3]: 0.0218 s⁻¹
- kon [3]: 187000 M⁻¹ s⁻¹
- Kd [4]: 69.2 nM
- koff [4]: 0.0402 s⁻¹
- kon [4]: 581000 M⁻¹ s⁻¹

B3: ABL-CD3-31 (antibody, V domains shown)
VH: EVQLVQSGAEVKKPGESLKISCKGSGYSFTNYWIGWVRQMPGKGLEWMGIIYPADSDTTYSPSFQGQVTISADKSITTAYLQWSSLKASDTAMYYCARHGGSYILDAFDIWGQGTMVTVSS
VL: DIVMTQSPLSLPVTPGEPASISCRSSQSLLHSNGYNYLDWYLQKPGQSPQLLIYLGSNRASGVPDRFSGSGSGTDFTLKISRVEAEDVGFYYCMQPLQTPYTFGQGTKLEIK
notes: as for B1
- Kd [5]: 6.66 nM
- koff [5]: 0.00149 s⁻¹
- kon [5]: 223000 M⁻¹ s⁻¹
- Kd [6]: 5.64 nM
- koff [6]: 0.00173 s⁻¹
- kon [6]: 306000 M⁻¹ s⁻¹

B4: ABL-CD3-44 (antibody, V domains shown)
VH: EVQLVESGGGLVQPGGSLRLSCAASGFTFSTYWMSWVRQAPGKGLEWVANIKQDGSEKYYVDSVKGRFTISRDNAKNSLYLQMNSLRAEDTAVYYCATGSFDYWGQGTLVTVSS
VL: QPVLTQPSSHSASSGASVRLTCMLSSGFSVGDFWIRWYQQKPGNPPRYLLFYHSDSNKGQGSGVPSRFSGSNDASANAGILRISGLQPEDEADYYCGTWHSNSKTWVFGGGTKLTVL
notes: as for B1
- Kd [3]: 356 nM
- Response [3]: 0.03
- koff [3]: 0.000184 s⁻¹
- kon [3]: 517 M⁻¹ s⁻¹
- Kd [7]: < 0.001 nM

B5: ABL-CD3-22 (antibody, V domains shown)
VH: EVQLVESGGGLVQPGGSLRLSCAASGFTFSSYSMNWVRQAPGKGLEWVSYISSSSSTIYYADSVKGRFTISRDNAKNSLYLQMNSLRDEDTAVYYCARDGPVDYGMDVWGQGTTVTVSS
VL: SYELTQPPSVSVSPGQTARITCSGDALPKQYTYWCQQKPGQAPVLVIYKDSERPSGIPERFSGSSSGTTVTLTISGVQAEDEADYYCQSADSSGTYRVFGGGTKLTVL
notes: as for B1
- Kd [1]: 49.2 nM
- Response [1]: 0.08
- koff [1]: 0.00513 s⁻¹
- kon [1]: 104000 M⁻¹ s⁻¹
- Kd [8]: 14.4 nM
- koff [8]: 0.00639 s⁻¹
- kon [8]: 444000 M⁻¹ s⁻¹

B6: ABL-CD3-36 (antibody, V domains shown)
VH: EVQLVESGGGLVQRGGSLRLSCAASGFTFSNYWMSWVRQAPGKGLEWVANIKEDGSEKYCVDSVKGRFTISRDNAKHSLYLQMNSLRAEDTAVYYCARERRTGYFDYWGQGTLVTVSS
VL: DIQMTQSPSTLSASVGDRVTITCRASQSISSWLAWFQQKTGKAPKLLIYKASSLESGVPSRFSGSGSGTEFTLTISSLQPDDFATYYCQQYISYSWTFGQGTKVEIK
notes: as for B1
- Kd [9]: 25 nM
- Response [9]: 0.49
- koff [9]: 0.00101 s⁻¹
- kon [9]: 40400 M⁻¹ s⁻¹
- Kd [10]: 4.18 nM
- koff [10]: 0.00729 s⁻¹
- kon [10]: 1.74e+06 M⁻¹ s⁻¹

B7: ABL-CD3-37 (antibody, V domains shown)
VH: EVQLVESGGGLVQPGGSLRLSCAASGFSFSSYSMNWVRQAPGKGLEWVSHIRSSTYSIYYADSVMGRFTISRDNAKNSLYLQMNSLRDEDTAVYFCARAKTGGDAFDIWGQGTMVTVSS
VL: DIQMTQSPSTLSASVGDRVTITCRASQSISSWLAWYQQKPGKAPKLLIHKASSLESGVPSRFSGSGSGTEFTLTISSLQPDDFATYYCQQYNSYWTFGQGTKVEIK
notes: as for B1
- Kd [11]: 17.8 nM
- koff [11]: 0.00404 s⁻¹
- kon [11]: 227000 M⁻¹ s⁻¹
- Kd [12]: 1.43 nM
- koff [12]: 0.00269 s⁻¹
- kon [12]: 1.89e+06 M⁻¹ s⁻¹

B8: CD3 × CD33-BspAb66 (bispecific antibody, human IgG1, kappa)
scFv: EVQLVESGGGLVQPGRSLRLSCAASGFTFDDYAMHWVRQAPGKGLEWVSGISWNSGSIGYADSVKGRFTISRDNAKNSLYLQMNSLRAEDTALYYCAKDSRGYGDYRLGGAYWGQGTLVTVSSGGGGSGGGGSGGGGSGGGGSEIVMTQSPATLSVSPGERATLSCRASQSVSSNLAWYQQKPGQAPRLLIYGASTRATGIPARFSGSGSGTEFTLTISSLQSEDFAVYYCQQYNNWPWTFGQGTKVEIKTSGPGGPDKTHTCPPCPAPEFEGGPSVFLFPPKPKDTLMISRTPEVTCVVVDVSHEDPEVKFNWYVDGVEVHNAKTKPREEQYNSTYRVVSVLTVLHQDWLNGKEYKCKVSNKALPASIEKTISKAKGQPREPQVYTLPPCREEMTKNQVSLWCLVKGFYPSDIAVEWESNGQPENNYKTTPPVLDSDGSFFLYSKLTVDKSRWQQGNVFSCSVMHEALHNHYTQKSLSLSPGK
heavy: EVQLVQSGAEVKKPGSSVKVSCKASGYTITDSNIHWVRQAPGQSLEWIGYIYPYNGGTDYNQKFKNRATLTVDNPTNTAYMELSSLRSEDTAFYYCVNGNPWLAYWGQGTLVTVSSASTKGPSVFPLAPSSKSTSGGTAALGCLVKDYFPEPVTVSWNSGALTSGVHTFPAVLQSSGLYSLSSVVTVPSSSLGTQTYICNVNHKPSNTKVDKRVEPKSCDKTHTCPPCPAPEFEGGPSVFLFPPKPKDTLMISRTPEVTCVVVDVSHEDPEVKFNWYVDGVEVHNAKTKPREEQYNSTYRVVSVLTVLHQDWLNGKEYKCKVSNKALPASIEKTISKAKGQPREPQVCTLPPSREEMTKNQVSLSCAVKGFYPSDIAVEWESNGQPENNYKTTPPVLDSDGSFFLVSKLTVDKSRWQQGNVFSCSVMHEALHNRFTQKSLSLSPGK
light: DIQLTQSPSTLSASVGDRVTITCRASESLDNYGIRFLTWFQQKPGKAPKLLMYAASNQGSGVPSRFSGSGSGTEFTLTISSLQPDDFATYYCQQTKEVPWSFGQGTKVEVKRTVAAPSVFIFPPSDEQLKSGTASVVCLLNNFYPREAKVQWKVDNALQSGNSQESVTEQDSKDSTYSLSSTLTLSKADYEKHKVYACEVTHQGLSSPVTKSFNRGEC
notes: also called CD3δε-specific control antibody scFv-Fc knob/TM; CD3xCD33-BspAb66
- RTCC EC50 (nM), KILR HL-60 T Cell Redirection cytotoxic assay with CD33-expressing target cells [13]: 25.4 nM
- Response (recombinant CD3 proteins [14]): 0.03
- Kd (recombinant CD3 proteins [15]): 0.854 nM
- koff (recombinant CD3 proteins [15]): 1.07e-05 s⁻¹
- kon (recombinant CD3 proteins [15]): 12500 M⁻¹ s⁻¹

B9: ABL-CD3-39 (antibody, V domains shown)
VH: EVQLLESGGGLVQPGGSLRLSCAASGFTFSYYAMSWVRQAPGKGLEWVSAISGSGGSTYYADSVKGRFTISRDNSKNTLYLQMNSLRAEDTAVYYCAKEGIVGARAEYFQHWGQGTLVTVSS
VL: DVVMTQSPLSLPVTLGQPASISCRSSQSLVYSDGNTYLTWFQQRPGQSPRRLIYKVSNRDSGVPDRFSGSGSGTDFTLKISRVEAEDVEIYYCMQGTHWPLTFGGGTKVEIK
notes: as for B1
- Kd [9]: 8.32 nM
- Response [9]: 0.41
- koff [9]: 0.000307 s⁻¹
- kon [9]: 36900 M⁻¹ s⁻¹
- Kd [16]: < 0.001 nM
- koff [16]: < 1e-07 s⁻¹
- kon [16]: 50000 M⁻¹ s⁻¹

B10: ABL-CD3-32 (antibody, V domains shown)
VH: EVQLVESGGGLVKPGGSLRLSCEASGFTFSSYNMNWVRQAPGKGLEWVSSISSSSSYIYYTDSVKGRFTISRDNAKNSLYLQMNSLRAEDTAVYYCARAERGSYAFDFWGQGTMVTVSS
VL: not shown
notes: as for B1
- Kd [17]: 38.9 nM
- koff [17]: 0.0152 s⁻¹
- kon [17]: 390000 M⁻¹ s⁻¹
- Kd [18]: 31.6 nM
- koff [18]: 0.00962 s⁻¹
- kon [18]: 305000 M⁻¹ s⁻¹
